Patent publication US20260297194 (published 2026)
One block for each binder: values may come before it.

How the values were obtained:
human GPRC5D [1] = biological target: T1, human GPRC5D (human, UniProt Q9NZD1); experiment: FACS, RPMI8226 cells
T1 chain: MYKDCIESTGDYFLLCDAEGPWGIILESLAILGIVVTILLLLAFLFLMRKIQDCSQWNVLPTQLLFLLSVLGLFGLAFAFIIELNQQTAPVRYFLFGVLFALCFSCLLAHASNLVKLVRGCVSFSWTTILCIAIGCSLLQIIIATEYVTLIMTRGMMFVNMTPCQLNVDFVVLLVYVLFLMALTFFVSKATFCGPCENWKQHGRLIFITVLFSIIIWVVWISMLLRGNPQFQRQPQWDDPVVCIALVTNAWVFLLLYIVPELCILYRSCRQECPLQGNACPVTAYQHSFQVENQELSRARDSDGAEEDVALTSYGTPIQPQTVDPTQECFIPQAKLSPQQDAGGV

human GPRC5D [2] = biological target: T1, human GPRC5D; experiment: FACS, NCI-H929 cells
human GPRC5D [3] = biological target: T1, human GPRC5D; experiment: FACS, NCI-H929 cells
human GPRC5D [4] = biological target: T1, human GPRC5D; experiment: FACS, human GPRC5D-CHOK1 cells
human CD3 [5] = biological target: T2, human CD3 (human, UniProt P07766); experiment: SPR
T2 chain: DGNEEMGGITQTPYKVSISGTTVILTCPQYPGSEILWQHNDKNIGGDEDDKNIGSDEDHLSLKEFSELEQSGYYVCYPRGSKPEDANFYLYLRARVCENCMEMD

human CD3 [6] = biological target: T2, human CD3; experiment: FACS, Jurkat cells
cynomolgus CD3 = biological target: T3, cynomolgus CD3 (cynomolgus monkey, UniProt Q95LI5); experiment: SPR
T3 chain: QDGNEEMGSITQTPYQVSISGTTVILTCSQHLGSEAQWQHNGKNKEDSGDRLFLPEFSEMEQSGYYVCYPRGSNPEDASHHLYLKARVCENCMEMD

human GPRC5A = human GPRC5A (human, UniProt Q8NFJ5); experiment: FACS, human GPRC5A-CHOK1 cells
human GPRC5A, sequence (Q8NFJ5 whole entry): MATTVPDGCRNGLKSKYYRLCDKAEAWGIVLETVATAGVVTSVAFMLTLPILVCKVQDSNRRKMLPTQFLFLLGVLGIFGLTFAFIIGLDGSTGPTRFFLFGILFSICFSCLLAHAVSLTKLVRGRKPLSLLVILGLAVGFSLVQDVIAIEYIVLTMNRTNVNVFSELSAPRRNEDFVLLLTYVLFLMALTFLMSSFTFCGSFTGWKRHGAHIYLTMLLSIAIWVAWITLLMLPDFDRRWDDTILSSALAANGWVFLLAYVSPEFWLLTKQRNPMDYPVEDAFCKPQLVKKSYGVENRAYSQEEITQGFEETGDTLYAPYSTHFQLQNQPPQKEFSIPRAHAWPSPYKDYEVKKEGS

human GPRC5D [7] = biological target: T1, human GPRC5D; experiment: FACS, human GPRC5D-CHOK1 cells

B1: Bispecific antibody 1 (GPRC5D arm) (antibody, V domains shown)
VH: QVQLVQSGAEVKKPGASVKVSCKASGYTFTSYIIHWVRQAPGQGLEWIGYINPYNDGTKYNEKFKGRVTMTSDTSTSTVYMELSSLRSEDTAVYYCARGGIRAFMNYWGQGTLVTVSS
VL: DIQMTQSPSSLSASVGDRVTITCKASQDVGTAVAWYQQKPGKAPKLLIYWASTRHTGVPSRFSGSGSGTDFTLTISSLQPEDFATYYCQHYISWTFGQGTKVEIK
EC50 (human GPRC5D [1]): 7.48 nM
EC50 (human GPRC5D [2]): 1.07 nM

B3: 18CH16H2L1 (antibody, V domains shown)
VH: B1 VH
VL: B1 VL
EC50 (human GPRC5D [3]): 0.3 nM
EC50 (human GPRC5D [4]): 0.51 nM

B4: Bispecific antibody 1 (CD3 arm) (antibody, V domains shown)
VH: EVKLVESGGGLVQPGGSLKLSCAASGFTFNTYAMNWVRQAPGKGLEWVARIRSKYNNYATYYADSVKDRFTISRDDAKNTLYLQMNNLRTEDTAVYYCVRHGNFGNSYVSWFAYWGQGTLVTVSS
VL: QAVVTQEPSLTVSPGGTVTLTCRSSTGAVTTSNYANWVQQKPGQAPRGLIGGTNKRAPGTPARFSGSLLGGKAALTLSGAQPEDEAEYYCALWYSNLWVFGGGTKLTVL
modifications: Acro CDD-H52W1 for SPR; native CD3 on Jurkat cells for FACS
Kd (human CD3 [5]): 20 nM
EC50 (human CD3 [6]): 22.1 nM

B7: Bispecific antibody 1 (CD3 arm) (antibody, V domains shown)
VH: B4 VH
VL: B4 VL
modifications: Acro CDD-C52W4
Kd (cynomolgus CD3): 16.8 nM

The next lines start with the values.

EC50 (human GPRC5D [1]): 22.9 nM
EC50 (human GPRC5D [2]): 5.19 nM
B2: Bispecific antibody 2 (GPRC5D arm) (antibody, V domains shown)
VH: B1 VH
VL: B1 VL

Kd (human CD3 [5]): 18.1 nM
EC50 (human CD3 [6]): 12.9 nM
B5: Bispecific antibody 2 (CD3 arm) (antibody, V domains shown)
VH: B4 VH
VL: B4 VL
modifications: Acro CDD-H52W1 for SPR; native CD3 on Jurkat cells for FACS

Kd (cynomolgus CD3): 18.9 nM
B6: Bispecific antibody 2 (CD3 arm) (antibody, V domains shown)
VH: B4 VH
VL: B4 VL
modifications: Acro CDD-C52W4

binding result (human GPRC5A): no binding
EC50 (human GPRC5D [7]): 3.89 nM
B8: 18CH-16 chimeric (antibody, V domains shown)
VH: EVQLQQSGPELVKPGASVKMSCKASGYTFTSYIIHWVKQKPGQGLEWIGYINPYNDGTKYNEKFKGKATLTSDRSSSTAYMEVSSLTSEDSAVYYCARGGIRAFMNYWGQGTSVTVSS
VL: DIVMTQSHKFMSTSVGDRVSITCKASQDVGTAVAWYQQKPGQSPKLLIYWASTRHTGVPDRFTGSGSGTDFTLSISNVQSEDLADYFCQHYISWTFGGGTNLEIK
